The target of series [1] is T1, endogenous EphA2 expressed in PC3 prostate cancer cells (UniProt P29317 24-976, limits assumed). In words: cell-based or functional assay.
The target of series [2] is T2, EphA2 ligand binding domain (EphA2 LBD, residues 28-200) with N-terminal MASQGPG and C-terminal Ala-6xHis tag (UniProt P29317 28-200).
T2 construct: range 28-200; Expressed in E. coli Origami 2 (DE3); used for ITC and crystallization
In words: ITC, peptide titrated into EphA2 LBD, 23 °C; average ± SE (number of experiments).
Description: For ITC, all peptides were dissolved in DMSO and both the EphA2 LBD and the peptides were diluted to obtain a final buffer containing 9.5 mM HEPES, pH 7.9, 95 mM NaCl, and 5% DMSO. […] Two-microliter aliquots of a peptide solution were injected into the cell containing 205 µL EphA2 LBD. 200-400 µM peptides were titrated into 20-40 µM EphA2 LBD. Experimental data were analyzed using the Origin software package (Microcal). The integrated values for the reaction heats were normalized to the amount of injected peptide after blank subtraction.

Series [3] concerns the target T3, EphA2 extracellular domain fused to the Fc portion of an antibody (EphA2 Fc).
T3 construct: extracellular domain; Immobilized in the ELISAs
As to the kind of experiment: ELISA, inhibition of ephrin-A5 AP binding to immobilized EphA2 Fc; representative experiment; concentrations in nM. Background: In an ELISA, binding on a coated surface is turned into a signal by an enzyme label.

In series [4] the target is T3, EphA2 extracellular domain fused to the …. As to the kind of experiment: competition ELISA: inhibition of ephrin-A5 AP binding to immobilized EphA2 Fc; average ± SE (number of experiments).
The target in series [5] is T1, endogenous EphA2 expressed in PC3 …. As to the kind of experiment: cell-based or functional assay. The source holds these as a separate data set.
Series [6] has the same target. In words: cell-based or functional assay. This is another data set of the same source.
For series [7] the target is unchanged. In words: cell-based or functional assay. The source holds these as a separate data set.
For series [8] the target is unchanged. As to the kind of experiment: cell-based or functional assay. The source holds these as a separate data set.
For series [9] the target is unchanged. As to the kind of experiment: cell-based or functional assay. This is another data set of the same source.
Series [10] deals with the molecule itself. As to the kind of experiment: quantitative FRET in HEK293 cells, monomer-dimer fit; dimerization of the mutant without peptide; row assigned as for Kdiss.
Series [11] concerns the molecule itself. In words: quantitative FRET in HEK293 cells, monomer-dimer fit; dimerization of the mutant in the presence of 50 µM YSA-GSGSK-bio; row assigned as for Kdiss.
Series [12] has as its target T3, EphA2 extracellular domain fused to the …. In words: competition ELISA: inhibition of ephrin-A5 AP binding to EphA2 Fc.
In series [13] the target is T1, endogenous EphA2 expressed in PC3 …. As to the kind of experiment: cell-based or functional assay. This is another data set of the same source.
Series [14] has the same target. As to the kind of experiment: cell-based or functional assay. This is another data set of the same source.

Read-outs that look alike come from different tables or passages of the source. Non-standard residues stand in square brackets, D forms with d. No end group written: not given here. *: point of attachment. Biotin = O=C1N[C@H]2[C@H](CS[C@H]2CCCCC(=O)*)N1; βAla = NCCC(=O)O

T3 sequence (P29317 whole entry, the tested form may be a part): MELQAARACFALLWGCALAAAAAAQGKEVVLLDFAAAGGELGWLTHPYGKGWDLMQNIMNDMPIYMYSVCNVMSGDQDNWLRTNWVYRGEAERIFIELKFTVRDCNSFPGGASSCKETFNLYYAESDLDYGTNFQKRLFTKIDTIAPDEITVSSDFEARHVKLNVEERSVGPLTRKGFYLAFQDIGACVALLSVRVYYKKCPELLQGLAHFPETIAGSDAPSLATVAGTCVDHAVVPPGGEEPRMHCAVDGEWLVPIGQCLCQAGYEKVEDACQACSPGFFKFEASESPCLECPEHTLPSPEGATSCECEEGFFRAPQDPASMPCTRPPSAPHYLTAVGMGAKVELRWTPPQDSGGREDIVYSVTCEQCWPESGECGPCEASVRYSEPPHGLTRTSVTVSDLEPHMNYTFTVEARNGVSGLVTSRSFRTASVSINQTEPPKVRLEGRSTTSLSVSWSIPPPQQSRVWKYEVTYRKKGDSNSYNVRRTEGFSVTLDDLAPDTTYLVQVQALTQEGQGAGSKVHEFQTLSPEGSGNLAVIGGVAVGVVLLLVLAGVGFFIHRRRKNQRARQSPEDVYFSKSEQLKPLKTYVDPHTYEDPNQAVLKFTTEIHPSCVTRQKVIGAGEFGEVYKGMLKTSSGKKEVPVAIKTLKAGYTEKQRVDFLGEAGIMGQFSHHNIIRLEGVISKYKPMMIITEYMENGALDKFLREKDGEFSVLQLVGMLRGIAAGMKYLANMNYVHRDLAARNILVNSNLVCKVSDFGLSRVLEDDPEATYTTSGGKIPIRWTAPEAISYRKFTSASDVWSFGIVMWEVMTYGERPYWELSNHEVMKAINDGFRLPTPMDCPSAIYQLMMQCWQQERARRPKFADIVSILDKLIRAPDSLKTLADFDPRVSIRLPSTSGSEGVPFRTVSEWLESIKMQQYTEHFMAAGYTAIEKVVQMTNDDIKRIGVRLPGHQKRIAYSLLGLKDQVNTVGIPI
T2 sequence (P29317 other isoform, or with tags, fused parts or gaps limits assumed, form in doubt): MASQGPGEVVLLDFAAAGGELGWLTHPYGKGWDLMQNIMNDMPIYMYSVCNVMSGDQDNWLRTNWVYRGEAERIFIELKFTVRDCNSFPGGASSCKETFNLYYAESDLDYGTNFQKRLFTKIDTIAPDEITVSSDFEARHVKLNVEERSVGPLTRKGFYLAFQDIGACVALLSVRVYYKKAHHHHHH

With [βAla]WLAYPDSVPYRPK-NH2 (also called BA-WLA-YRPKam) [βA-WLA-YRPKam], in series [1], the “EC50 of restoration of pAKT (S473) in cells treated with 0.1 µg/ml ephrin-A1 Fc, immunoblot, PC3 cells” value worked out at 2.4 µM and the “IC50 of inhibition of EphA2 pY588 induced by 0.1 µg/ml ephrin-A1 Fc, immunoblot, PC3 cells” value turned out to be 3.2 µM. In [2], the Kd (usually the equilibrium constant for the complex coming apart) amounted to 110 nM. Moreover, the IC50 (commonly the point on the concentration scale where inhibition reaches its midpoint) in series [3] stood at 24 nM. Besides, the IC50 in series [4] was 19 nM.

In turn, KAWLAYPDSVPYRPK (biotin on the N-terminal lysine (K-bio); C-terminal amide (am)) [K-bioA-WLA-YRPKam] came in with a half-inhibitory concentration (IC50) in series [3] of 14 nM.

Regarding [βAla]WLAYPDSVPYSPK(Biotin) [βA-WLA-YSPK-bio], in [5], the “EC50 of EphA2 pY588 induction, immunoblot, PC3 cells, 15 min” value (from here on “EC50 of EphA2 pY588 induction”) came out at 37 nM and the “IC50 of AKT S473 phosphorylation (pAKT), immunoblot, PC3 cells, 15 min” value (“IC50 of AKT S473 phosphorylation (pAKT)” below) was 30 nM.

B1: YSA-GSGSK-bio (peptide)
peptide: YSAYPDSVPMMSGSGSK(Biotin)
notes: YSA with C-terminal GSGSK linker and biotin on the lysine side chain; also called YSA-GSGSK-biotin; YSA-GSGSK-bio peptide
Turning to B1, the IC50 in series [4] was found to be 820 nM. That is a sub-micromolar value.

In the case of [βAla]WLAYPDSVPYK(Biotin) [βA-WLA-YK-bio], in series [6], the “IC50 of AKT S473 phosphorylation (pAKT)” value came to 0.97 µM.

For [βAla]WLAYPDSVPYRPK (also called BA-WLA-YRPK) [βA-WLA-YRPK], binding in [2] was characterised by a dissociation constant (Kd) of 190 nM. The IC50 turned out to be 53 nM in series [3] and 55 nM in [4]. Further, the “EC50 of EphA2 pY588 induction” value in series [7] worked out at 300 nM. Besides, the “IC50 of AKT S473 phosphorylation (pAKT)” value in series [7] was found to be 500 nM.

On to [βAla]WLAYPDSVPYGSK(Biotin) [βA-WLA-YGSK-bio], for which, in [8], the “EC50 of EphA2 pY588 induction” value was found to be 2.2 µM and the “IC50 of AKT S473 phosphorylation (pAKT)” value turned out to be 0.93 µM.

As for [βAla]WLAYPDSVPYGSGK(Biotin) [βA-WLA-YGSGK-bio], in [9], the “EC50 of EphA2 pY588 induction” value is 1 µM.

B2: L223R/L254R/V255R (receptor)
chain: AQGKEVVLLDFAAAGGELGWLTHPYGKGWDLMQNIMNDMPIYMYSVCNVMSGDQDNWLRTNWVYRGEAERIFIELKFTVRDCNSFPGGASSCKETFNLYYAESDLDYGTNFQKRLFTKIDTIAPDEITVSSDFEARHVKLNVEERSVGPLTRKGFYLAFQDIGACVALLSVRVYYKKCPELLQGLAHFPETIAGSDAPSRATVAGTCVDHAVVPPGGEEPRMHCAVDGEWRRPIGQCLCQAGYEKVEDACQACSPGFFKFEASESPCLECPEHTLPSPEGATSCECEEGFFRAPQDPASMPCTRPPSAPHYLTAVGMGAKVELRWTPPQDSGGREDIVYSVTCEQCWPESGECGPCEASVRYSEPPHGLTRTSVTVSDLEPHMNYTFTVEARNGVSGLVTSRSFRTASVSINQTEPPKVRLEGRSTTSLSVSWSIPPPQQSRVWKYEVTYRKKGDSNSYNVRRTEGFSVTLDDLAPDTTYLVQVQALTQEGQGAGSKVHEFQTLSPEGSGNLAVIGGVAVGVVLLLVLAGVGFFIHRRRKNQRARQSPEDVYFSKSEQLKPLKTYVDPHTYEDPNQAVLKFTTEIHPSCVTRQKVIGAGEFGEVYKGMLKTSSGKKEVPVAIKTLKAGYTEKQRVDFLGEAGIMGQFSHHNIIRLEGVISKYKPMMIITEYMENGALDKFLREKDGEFSVLQLVGMLRGIAAGMKYLANMNYVHRDLAARNILVNSNLVCKVSDFGLSRVLEDDPEATYTTSGGKIPIRWTAPEAISYRKFTSASDVWSFGIVMWEVMTYGERPYWELSNHEVMKAINDGFRLPTPMDCPSAIYQLMMQCWQQERARRPKFADIVSILDKLIRAPDSLKTLADFDPRVSIRLPSTSGSEGVPFRTVSEWLESIKMQQYTEHFMAAGYTAIEKVVQMTNDDIKRIGVRLPGHQKRIAYSLLGLKDQVNTVGIPI
modifications: A C-terminal fluorescent protein tag (mTURQ donor or EYFP acceptor) is not carried in the letters.
notes: also called EphA2 L223R/L254R/V255R; clustering interface triple mutant; not shown: C-terminal fluorescent protein (mTURQ or EYFP) and any linker to it
For B2, the figures for the ΔG of dimerization in series [10] and in [11] were -3.8 kcal/mol and -5 kcal/mol, respectively.

In [2], YSAYPDSVPMMSGSGSK [YSA-GSGSK] showed a Kd of 8000 nM. Also, the 50% inhibitory concentration (IC50) in series [3] and in [4] was 4500 nM in each case.

Take [βAla]WLAYPDSVPY-NH2 (also called bA-WLA-Yam; BA-WLA-Yam) [βA-WLA-Yam]: the results for the IC50 in series [3] and in series [4] were 440 nM and 410 nM, respectively. In series [12], the “fold improvement in potency against βA-WLAam” value is ~2 fold.

Regarding [βAla]WLAYPDSVPYRPK(Biotin)-NH2 [βA-WLA-YRPKam-bio], in series [13], the “EC50 of EphA2 pY588 induction” value came out at 100 nM and the “IC50 of AKT S473 phosphorylation (pAKT)” value is 210 nM.

B3: βA-WLA-YSK-bio (peptide)
peptide: [βAla]WLAYPDSVPYSK(Biotin)
notes: also called bA-WLA-YSK-bio; BA-WLA-YSK-bio
Turning to B3, in series [4], the 50% inhibitory concentration (IC50) came to 300 nM.

On to [βAla]WLAYPDSVPYRPK(Ac) [βA-WLA-YRP-acK], for which, in series [14], the “EC50 of EphA2 pY588 induction” value turned out to be 190 nM and the “IC50 of AKT S473 phosphorylation (pAKT)” value stood at 370 nM.

B4: βA-WLA-YRPK-bio (peptide)
peptide: [βAla]WLAYPDSVPYRPK(Biotin)
notes: also called bA-WLA-YRPK-bio; BA-WLA-YRPK-bio
Regarding B4, in [3], the half-inhibitory concentration (IC50) came to 37 nM.

(Values after patent US12398179 (SANFORD BURNHAM PREBYS MEDICAL DISCOVERY INSTITUTE, dated 2025).)
